# Earlier results as cited in article PMC5603210.
# Biological target: von Willebrand factor (Homo sapiens) (UniProt P04275)
substance,measurement,value
Factor VIII (from UniProt P00451),Kd,500 pM
